Results from the supplement of paper PMC9732359.
± gives the uncertainty stated by the source.

Assay: protein stability index of a GFP-peptide fusion (yeast GPS) (PSI 1-4); higher = more stable; sorted into four equal gates, so the index is relative within each strain
Method in brief: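 Tiled 17-residue peptides from yeast proteins were fused downstream of GFP on a plasmid that also expresses Cherry, and the pooled library was carried in yeast. Mid-log cultures grown in leucine-free medium were sorted into four equal gates by GFP/Cherry fluorescence ratio. Plasmids from each gate were PCR-amplified and Illumina-sequenced, and reads were assigned to strains by barcodes. Each peptide's protein stability index is the sum, over gates, of the gate's read frequency multiplied by its gate number.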

## VVAAAEDDDNEQHEEKA [QCR6]
doa10∆
  protein stability index: 2.87 ± 0.12
pdr5∆
  protein stability index: 2.98 ± 0.15
ubr1∆
  protein stability index: 3.07 ± 0.16

## ADTGRDDTKETVYISSI [RPN11]
doa10∆
  protein stability index: 3.12 ± 0.09
pdr5∆
  protein stability index: 3.28 ± 0.1
san1∆
  protein stability index: 3.01 ± 0.073
ubr1∆
  protein stability index: 3.16 ± 0.053

## KTADVKRQYVKQFLTKD [RPL20A]
doa10∆
  protein stability index: 2.94 ± 0.087
pdr5∆
  protein stability index: 2.92 ± 0.055
san1∆
  protein stability index: 2.2 ± 0.07
ubr1∆
  protein stability index: 2.6 ± 0.048

## LAYSKIVNGQTFSYVDS [YMR129W/POM152]
doa10∆
  protein stability index: 2.25 ± 0.045
pdr5∆
  protein stability index: 2.64 ± 0.059
san1∆
  protein stability index: 2.53 ± 0.054
ubr1∆
  protein stability index: 1.95 ± 0.042

## HESTSRTDQYTIDNIDS [YMR129W/POM152]
doa10∆
  protein stability index: 2.84 ± 0.053
pdr5∆
  protein stability index: 2.9 ± 0.053
san1∆
  protein stability index: 2.9 ± 0.045
ubr1∆
  protein stability index: 2.86 ± 0.045

## KPAFSFGAKSDEKKDSD [YJL041W/NSP1]
doa10∆
  protein stability index: 3.35 ± 0.087
pdr5∆
  protein stability index: 3.25 ± 0.069
san1∆
  protein stability index: 3.21 ± 0.058
ubr1∆
  protein stability index: 3.46 ± 0.056

## LNNNNNNNNTTTTTTTT [SWI1]
doa10∆
  protein stability index: 3.06 ± 0.062
pdr5∆
  protein stability index: 3.27 ± 0.062
san1∆
  protein stability index: 3.33 ± 0.081
ubr1∆
  protein stability index: 3.22 ± 0.054

## NATVVDSFKYEPLAPGN [YLR335W/NUP2]
doa10∆
  protein stability index: 2.95 ± 0.057
pdr5∆
  protein stability index: 3.02 ± 0.054
san1∆
  protein stability index: 2.98 ± 0.053
ubr1∆
  protein stability index: 2.94 ± 0.051

## NGQYAAFVKDMQVYLVP [RPC37]
doa10∆
  protein stability index: 2.67 ± 0.12
pdr5∆
  protein stability index: 1.52 ± 0.089
san1∆
  protein stability index: 1.4 ± 0.073
ubr1∆
  protein stability index: 1.83 ± 0.12

## VGTAIDSILNYAKSEFD [ECM29]
doa10∆
  protein stability index: 2.76 ± 0.2
pdr5∆
  protein stability index: 2.77 ± 0.1
san1∆
  protein stability index: 2.92 ± 0.25
ubr1∆
  protein stability index: 3.08 ± 0.088

## LNKSDLLDKYGKTGLSN [YML103C/NUP188]
doa10∆
  protein stability index: 3.38 ± 0.12
pdr5∆
  protein stability index: 3.17 ± 0.13
san1∆
  protein stability index: 3.44 ± 0.058
ubr1∆
  protein stability index: 3.38 ± 0.075

## RLRKRVTIIPLDKIYTR [SMC2]
doa10∆
  protein stability index: 2 ± 0.073
pdr5∆
  protein stability index: 1.66 ± 0.095
san1∆
  protein stability index: 1.84 ± 0.071
ubr1∆
  protein stability index: 1.36 ± 0.051

## TSPGFGVSSPGFSPTSP [RPO21]
doa10∆
  protein stability index: 2.7 ± 0.077
pdr5∆
  protein stability index: 2.66 ± 0.071
san1∆
  protein stability index: 2.5 ± 0.058
ubr1∆
  protein stability index: 2.93 ± 0.043

## DFSARTVISGDPNLELD [RPO21]
doa10∆
  protein stability index: 3.29 ± 0.22
pdr5∆
  protein stability index: 2.79 ± 0.21
san1∆
  protein stability index: 2.58 ± 0.15
ubr1∆
  protein stability index: 2.47 ± 0.13

## IPTKESLTRDFEQCCKE [YIL149C/MLP2]
doa10∆
  protein stability index: 2.81 ± 0.078
pdr5∆
  protein stability index: 2.96 ± 0.13
san1∆
  protein stability index: 2.62 ± 0.088
ubr1∆
  protein stability index: 2.88 ± 0.13

## LNYTVINFKSREAIRPG [AAR2]
doa10∆
  protein stability index: 3.07 ± 0.069
pdr5∆
  protein stability index: 3.09 ± 0.068
san1∆
  protein stability index: 3.15 ± 0.058
ubr1∆
  protein stability index: 3.17 ± 0.042

## LPSEERIQKIISKRKEE [YIL149C/MLP2]
doa10∆
  protein stability index: 1.74 ± 0.08
pdr5∆
  protein stability index: 1.66 ± 0.074
san1∆
  protein stability index: 1.41 ± 0.16
ubr1∆
  protein stability index: 1.65 ± 0.055

## SKEFSAYVSGLFEIYRD [YJR042W/NUP85]
doa10∆
  protein stability index: 1.76 ± 0.093
pdr5∆
  protein stability index: 2.75 ± 0.15
san1∆
  protein stability index: 2.7 ± 0.19
ubr1∆
  protein stability index: 2.31 ± 0.08

## YNNNTIRKLLEKINRMI [CSI1]
doa10∆
  protein stability index: 3 ± 0.18
pdr5∆
  protein stability index: 2.79 ± 0.17
ubr1∆
  protein stability index: 3.1 ± 0.19

## RFNHLVTRLFFICSIIQ [YML031W/NDC1]
doa10∆
  protein stability index: 1.22 ± 0.046
pdr5∆
  protein stability index: 1.29 ± 0.039
san1∆
  protein stability index: 1.32 ± 0.086
ubr1∆
  protein stability index: 1.49 ± 0.039

## SIIGNKNNNYTWEECVF [REC8]
doa10∆
  protein stability index: 2.78 ± 0.15
pdr5∆
  protein stability index: 2.62 ± 0.23
san1∆
  protein stability index: 2.73 ± 0.085
ubr1∆
  protein stability index: 2.43 ± 0.11

## DALQDVEESSEKKQKTE [DPB4]
doa10∆
  protein stability index: 3.2 ± 0.082
pdr5∆
  protein stability index: 3.42 ± 0.076
san1∆
  protein stability index: 3.21 ± 0.048
ubr1∆
  protein stability index: 3.18 ± 0.052

## QLQGPQWMNEMVERWAN [SOH1]
doa10∆
  protein stability index: 3.28 ± 0.11
pdr5∆
  protein stability index: 3.18 ± 0.091
san1∆
  protein stability index: 2.93 ± 0.099
ubr1∆
  protein stability index: 3.06 ± 0.084

## FHSEISPDSTVNRSVVV [YAR002W/NUP60]
doa10∆
  protein stability index: 1.75 ± 0.11
pdr5∆
  protein stability index: 1.76 ± 0.052
san1∆
  protein stability index: 1.76 ± 0.13
ubr1∆
  protein stability index: 2.16 ± 0.059

## LTLIFYDVLHDVFTINP [YML103C/NUP188]
doa10∆
  protein stability index: 1.7 ± 0.071
pdr5∆
  protein stability index: 2.09 ± 0.051
san1∆
  protein stability index: 2.3 ± 0.071
ubr1∆
  protein stability index: 2.55 ± 0.054

## TFNNQDKGLLPYAIMET [RPO31]
doa10∆
  protein stability index: 1.99 ± 0.067
pdr5∆
  protein stability index: 2.46 ± 0.085
san1∆
  protein stability index: 1.44 ± 0.075
ubr1∆
  protein stability index: 1.48 ± 0.058
